One series concerns the target T1, DgoR A152E (Escherichia coli BW, UniProt P31460 1-229, A152E).
T1 sequence: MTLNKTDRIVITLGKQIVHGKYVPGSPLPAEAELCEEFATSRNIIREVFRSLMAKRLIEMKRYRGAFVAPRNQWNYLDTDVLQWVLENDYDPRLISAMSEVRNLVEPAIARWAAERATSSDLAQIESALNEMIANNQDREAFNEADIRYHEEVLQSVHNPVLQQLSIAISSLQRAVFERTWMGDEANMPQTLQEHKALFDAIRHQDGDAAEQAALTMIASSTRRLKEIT
Description: EMSA; no effector; apparent Kd, Hill fit; 10 nM DNA, 50 mM Tris pH 8.5, 10 mM MgCl2, 265 mM NaCl, 1 mM PMSF, 12% glycerol, 2 mM DTT, 1 ug herring sperm DNA per 20 uL, 27 C 30 min; effector pre-incubation 37 C 20 min; 8% native PAGE 0.5x TBE. As to conditions: protein: recombinant; tags: C-terminal 6xHis; chain copies: 2; label: 5'-Cy5 on strand 1; blunt. A general note: Mobility shift assays separate free from complexed probe on a gel.

A further series deals with T2, DgoR R71C (Escherichia coli BW, UniProt P31460 1-229, R71C).
T2 sequence: T1 sequence with R71C, E152A
The series is described as above. As to conditions: protein: recombinant; tags: C-terminal 6xHis; chain copies: 2; label: 5'-Cy5 on strand 1; blunt.

Residue numbers refer to the chain shown, from its start.

B1: dgo promoter probe GA149/GA150 (dsDNA)
DNA 1: GTGATCTAAATTGTAGTACAACAATATAAGTTTGTACTACATTACACGCACG
DNA 2: CGTGCGTGTAATGTAGTACAAACTTATATTGTTGTACTACAATTTAGATCAC
Consider B1, for which the Kd was determined as 1.95 ± 0.09 µM with DgoR A152E and 0.57 ± 0.016 µM with DgoR R71C.

Source of the values: PMC12288454, “Functional consequences of genetic variations in DgoR, a GntR/FadR family transcriptional repressor of D-galactonate metabolism in Escherichia coli” (Journal of Bacteriology, 2025).
